{
  "source": "paper PMC9524465",
  "about": "(ACS catalysis, 2021)",
  "molecular_target": "the molecule itself",
  "experiment": "crystal structure",
  "data": [
    {"protein": "GIAAIKQEHAAIKQEIAAIKQEIAAIKWEG (not fully specified; acetylated N-terminal Gly (Ac-); amidated C-terminal Gly (-CONH2))", "note": "[[3SCC-(I9H)3] artificial copper peptide (ArCuP), de novo designed trimeric coiled coil peptide]", "values": [
      {"measurement": "stoichiometry N", "value": 3}
    ]}
  ]
}
